Laboratory results published in patent US20100055103A1 (Genentech, published 2010).
Numbering of substitutions follows the chain as printed. Blank lines part the entries; values can stand above or below the binder they belong to.

Experiments:
[1] = biological target: T1, Human IL-17F (R&D Systems, cat #1335-IL-025/CF) (human, UniProt Q96PD4 31-163); assay: screening of cross-reactive clones; assay not given
T1 construct: That entry is derived from the native cDNA and may include the signal peptide; also called rhIL-17F; recombinant human IL-17F
T1 sequence: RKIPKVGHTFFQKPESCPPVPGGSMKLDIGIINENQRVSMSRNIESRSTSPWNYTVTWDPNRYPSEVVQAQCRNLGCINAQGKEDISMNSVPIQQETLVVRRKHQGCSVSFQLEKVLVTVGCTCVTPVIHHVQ

[2] = biological target: T2, Recombinant human IL-17A/F heterodimer (human, UniProt Q16552 24-155; Q96PD4 31-163); assay: as above
T2 construct: also called IL-17A/F (GNE)
T2 sequence (Q16552 24-155 limits assumed, one chain of several): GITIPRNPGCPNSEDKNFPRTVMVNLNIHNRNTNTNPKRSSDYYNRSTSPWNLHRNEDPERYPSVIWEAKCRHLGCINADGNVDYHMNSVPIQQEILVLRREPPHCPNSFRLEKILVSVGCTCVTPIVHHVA

[3] = biological target: T3, Human IL-17F dimer (baculovirus/Hi5-expressed, His-tag removed by thrombin) (human, UniProt Q96PD4 31-163, limits assumed); assay: X-ray crystal structure, content of the asymmetric unit
T3 construct: The N-terminal His-tag and thrombin site were introduced and then cleaved off; also called purified recombinant IL17F
T3 sequence: T1 sequence

[4] = biological target: T1, Human IL-17F (R&D Systems, cat …); assay: BIAcore SPR, IgG captured by anti-human Fc

B1: YW278.15 (antibody, V domains shown)
VH: EVQLVESGGGLVQPGGSLRLSCAASGFTFTDYDISWVRQAPGKGLEWVASISPSDGYTYYADSVKGRFTISADTSKNTAYLQMNSLRAEDTAVYYCARYLYWSYVMDYWGQGTLVTVSS
VL: DIQMTQSPSSLSASVGDRVTITCRASQDVSTAVAWYQQKPGKAPKLLIYSASFLYSGVPSRFSGSGSGTDFTLTISSLQPEDFATYYCQQSYTTPPTFGQGTKVEIKR
binding result [1]: binds
binding result [2]: binds

B4: YW278.15.2 (antibody, V domains shown)
VH: B1 VH with T28S, T30I, S54Y
VL: B1 VL with S91Y, T93I, T94Y, P96A
binding result [4]: binds

Second part, the binder after the results:

binding result [3]: binds
B2: Fab fragment of YW 278.15.18.C55S (Fab, V domains shown)
VH: B1 VH with S54P, G56S
VL: B1 VL with T94A, P95K, P96L
notes: also called YW278.15.18C55S Fab

binding result [4]: binds
B3: YW278.15.18 (antibody, V domains shown)
VH: B1 VH with S54P, G56C
VL: B1 VL with T94A, P95K, P96L
